Measurements published in patent US20260242839A1, “GLYCOSIDE PRODUCT BIOSYNTHESIS AND RECOVERY” (Manus Bio Inc., priority 2023, published 2026).
Substitutions are numbered along the chain they refer to. In names and notes the source's numbering stands. Several values for one entry are separate records, joined by “and”; a condition that tells them apart may be missing. Equal entries are not always repeated.

B1: K99F: mutation to UGT enzyme of SEQ ID NO: 15 (protein)
chain: MARRTKNSSGMSLAERFWLTLSRSSLVVGRSCVEFEPETVPLLSTLRGKPITFLGLMPPLPEGRREDGEDATVRWLDAQPAKSVVYVALGSEVPLGVEFVHELALGLELAGTRFLWALRKPTGVSDADLLPAGFEERTRGRGVVATRWVPQMSILAHAAVGAFLTHCGWNSTIEGLMFGHPLIMLPITGDQGPNARLIEAKNAGLQVARNDGDGSFDREGVAAAIRAVAVEEESSKVFQEKAKKLQEIVADMACHERYIDGFIQQLRSYKDDSGYSSSYAAAAGMHVVICPWLAFGHLLPCLDLAQRLASRGHRVSFVSTPRNISRLPPVRPALAPLVAFVALPLPRVEGLPDGAESTNDVPHDRPDMVELHRRAFDGLAAPFSEFLGTACADWVIVDSFHHWAAAAALEHKVPCAMMFLGSAEMIASIADERLEHAETESPAAAGQGRPAAAPTFEVARMKLIR
B2: L205Y: mutation to UGT enzyme of SEQ ID NO: 15 (protein)
chain: B1 chain with F99K, L205Y
B3: G189Y: mutation to UGT enzyme of SEQ ID NO: 15 (protein)
chain: B1 chain with F99K, G189Y
B4: S310T: mutation to UGT enzyme of SEQ ID NO: 15 (protein)
chain: B1 chain with F99K, S310T
B5: K99E: mutation to UGT enzyme of SEQ ID NO: 15 (protein)
chain: B1 chain with F99E
B6: A81K: mutation to UGT enzyme of SEQ ID NO: 15 (protein)
chain: B1 chain with A81K, F99K
B7: A81G: mutation to UGT enzyme of SEQ ID NO: 15 (protein)
chain: B1 chain with A81G, F99K
B8: G210E: mutation to UGT enzyme of SEQ ID NO: 13 (protein)
chain: MATKGSSGMSLAERFWLTLSRSSLVVGRSCVEFEPETVPLLSTLRGKPITFLGLMPPLHEGRREDGEDATVRWLDAQPAKSVVYVALGSEVPLGVEKVHELALGLELAGTRFLWALRKPTGVSDADLLPAGFEERTRGRGVVATRWVPQMSILAHAAVGAFLTHCGWNSTIEGLMFGHPLIMLPIFGDQGPNARLIEAKNAGLQVARNDEDGSFDREGVAAAIRAVAVEEESSKVFQAKAKKLQEIVADMACHERYIDGFIQQLRSYKDDSGYSSSYAAAAGMHVVICPWLAFGHLLPCLDLAQRLASRGHRVSFVSTPRNISRLPPVRPALAPLVAFVALPLPRVEGLPDGAESTNDVPHDRPDMVELHRRAFDGLAAPFSEFLGTACADWVIVDVFHHWAAAAALEHKVPCAMMLLGSAEMIASIADERLEHAETESPAAAGQGRPAAAPTFEVARMKLIR
B9: T453R: mutation to UGT enzyme of SEQ ID NO: 13 (protein)
chain: B8 chain with E210G, T453R
B10: A451L: mutation to UGT enzyme of SEQ ID NO: 13 (protein)
chain: B8 chain with E210G, A451L
B11: C288F: mutation to UGT enzyme of SEQ ID NO: 13 (protein)
chain: B8 chain with E210G, C288F
B12: G5N: mutation to UGT enzyme of SEQ ID NO: 13 (protein)
chain: B8 chain with G5N, E210G
B13: V397S: mutation to UGT enzyme of SEQ ID NO: 13 (protein)
chain: B8 chain with E210G, V397S
B14: V397C: mutation to UGT enzyme of SEQ ID NO: 13 (protein)
chain: B8 chain with E210G, V397C
B15: V456S: mutation to UGT enzyme of SEQ ID NO: 13 (protein)
chain: B8 chain with E210G, V456S
B16: A451T: mutation to UGT enzyme of SEQ ID NO: 13 (protein)
chain: B8 chain with E210G, A451T
B17: S20E: mutation to UGT enzyme of SEQ ID NO: 13 (protein)
chain: B8 chain with S20E, E210G
B18: A248G: mutation to UGT enzyme of SEQ ID NO: 13 (protein)
chain: B8 chain with E210G, A248G
B19: V91A: mutation to UGT enzyme of SEQ ID NO: 13 (protein)
chain: B8 chain with V91A, E210G
B20: M55L: mutation to UGT enzyme of SEQ ID NO: 13 (protein)
chain: B8 chain with M55L, E210G
B21: F186T: mutation to UGT enzyme of SEQ ID NO: 13 (protein)
chain: B8 chain with F186T, E210G
B22: V456W: mutation to UGT enzyme of SEQ ID NO: 13 (protein)
chain: B8 chain with E210G, V456W
B23: V456M: mutation to UGT enzyme of SEQ ID NO: 13 (protein)
chain: B8 chain with E210G, V456M
B24: F186M: mutation to UGT enzyme of SEQ ID NO: 13 (protein)
chain: B8 chain with F186M, E210G
B25: F186I: mutation to UGT enzyme of SEQ ID NO: 13 (protein)
chain: B8 chain with F186I, E210G
B26: T453K: mutation to UGT enzyme of SEQ ID NO: 13 (protein)
chain: B8 chain with E210G, T453K

system: steviol glycoside; experiment: steviol glycoside bioconversion by E. coli expressing individual mutations of UGT SEQ ID NO: 15; format: cell-based; details: fold improvement of % conversion vs parent UGT SEQ ID NO: 15; stevia leaf extract and glucose fed; 37° C., 48 hr
Procedure: Fold improvement is with respect to % steviol glycoside conversion of the parent UGT enzyme of SEQ ID NO: 15. SEQ ID NO: 16 has the following mutations from SEQ ID NO: 15: M152A, S153A. Stevia leaf extract and glucose were fed to the bioconversion strains. Bioconversion took place at 37° C. for 48 hr. Data were quantified by reverse phase LC DAD to quantify conversion of steviol glycosides.
(§1) Fold improvement (FI) is with respect to % steviol glycoside conversion.

Molecule	FI % Stevioside −> rebE	FI % rebA −> rebD
B1	1.08	1.08
B2	1.03	1.04
B3	1.04	1.04
B4	1.04	1.04
B5	1.02	1.03
B6	1.02 and 1.01	1.04 and 1.02
B7	1.09	1.04

system: steviol glycoside; experiment: steviol glycoside bioconversion by E. coli expressing individual mutations of UGT SEQ ID NO: 13; format: cell-based; details: fold improvement of % conversion vs parent UGT SEQ ID NO: 13; stevia leaf extract and glucose fed; 37° C., 48 hr
Description: A UGT enzyme referred to as MbUGT1,2 is described in U.S. Pat. No. 10,743,567, which is hereby incorporated by reference. An engineered version of MbUGT1,2 (SEQ ID NO: 13) is described in US 2020/0087692, which is hereby incorporated by reference in its entirety. The UGT enzyme of SEQ ID NO: 13 was further engineered to improve activity for steviol glycoside bioconversion. […] Fold improvement is with respect to % steviol glycoside conversion of the parent UGT enzyme (SEQ ID NO: 13). SEQ ID NO: 14 has the following mutations from SEQ ID NO: 13: G5N, F186T, V397S. Stevia leaf extract and glucose were fed to the bioconversion strains. Bioconversion took place at 37° C. for 48 hr. Data were quantified by reverse phase LC DAD to quantify conversion of steviol glycosides.
as §1

Molecule	FI %Stevioside→rebE	FI %rebA→rebD
B8	1.2	1.2
B9	1.4	1.6
B10	1.4	1.5
B11	1.7	1.5
B12	1.5	1.5
B13	3.8	3.4
B14	1.9	1.9
B15	1.5	1.6
B16	1.8	2.0
B17	1.2	1.1
B18	1.1	1.1
B19	1.1	1.1
B20	1.1	1.0
B21	1.8	1.7
B22	1.2	1.2
B23	1.5	1.5
B24	2.9	2.3
B25	2.6	2.1
B26	1.4	1.6
